Test results published in patent publication US11981943B2, “Methods and composition for detecting CAPN5” (UNIVERSITY OF IOWA RESEARCH FOUNDATION, priority 2016, dated 2024).
“Also recorded” adds a separate entry of the source. Blank lines part the entries; values can stand above or below the compound they belong to.

Key:
Assay type in all cases: biochemical
CAPN5-R243L = CAPN5-R243L (Homo sapiens, UniProt O15484, R243L); assay: FRET peptide proteolysis assay with CAPN5-R243L; conditions: hyperactive R243L mutant
Description: (§1) FIG. 2. Diagram of Assay. 10 uM of FRET substrates were added to a solution containing 2 mM DTT, 5 uM Calcium, and CAPN5 Buffer (20 mM Tris, 300 mM NaCl, pH 7.5) to a volume of 100 uL. The solution was pipetted into a 96 well plate in wells that contained 24 uM of CAPN5-WT, CAPN5-R243L, or no CAPN5. The fluorescence of each well was measured using a Tecan Infinite M200 Pro plate reader.
(§2) Peptide substrates dissolved in DMSO and H2O were incubated with WT CAPN5 at 37° C. in the presence or absence of calcium until a change in fluorescence was no longer detected. […] As expected, R243LCAPN5 (hyperactive) cleaved substrate fragments at a higher rate (FIG. 4). Inhibitor peptides were identified that serve as the lead compounds for optimization.

CAPN5 WT [1] = molecular target: T1, CAPN5 WT (Homo sapiens, UniProt O15484); assay: FRET peptide proteolysis assay with CAPN5-WT; parameters: MBP (N); conditions: for proteolysis of peptide substrate by CAPN5-WT (fluorescence): FRET peptide, calpain activity buffer, 37° C.
Description: as §1, §2
Proteolytic kinetics of CAPN5 is influenced by peptide length near its autoproteolytic site. Peptides substrates that were 7, 11, and 21 amino acids long were incubated in calpain activity buffer. The solution was brought to 37° C. CAPN5 was then added and fluorescence was measured. […] The kinetics data from the Michaelis-Menten and substrate inhibition equations are shown in a table (FIG. 12D).
(§3) Peptides were incubated in calpain activity buffer, and the solution was brought to 37° C. Calpain was added and fluorescence was measured. The fluorescence measured for the lead peptide, CAPN5p370-380, was plotted and lines were fit using the following substrate inhibition equation, Y=Vmax*X/(Km+X*(1+X/Ki)). […] The fluorescence measure for a previously published calpain-1 peptide, EPLFAERK (SEQ ID NO: 22), was plotted and lines were fit using the following Michaelis-Menten equation, Y=Vmax*X/(Km+X) (FIG. 13B). […] Kinetics data from the Michaelis-Menten and substrate inhibition equations are shown in a table (FIG. 13C).
Scanning modifications were made to the amino acids of the lead compound to make the bonds un-cleavable by CAPN5 (FIG. 18B). Despite modifications, the peptide still fit in the catalytic groove using docking predictions. N-terminal (EDANS) and C-terminal GLU-(DABCYL) FRET tags were added to the peptides for our standard CAPN5 assay and were dissolved in 70% DMSO (FIG. 18C). Peptides incubated for 15 minutes at various concentrations with 5 μg of MBP-CAPN5 WT. Modification of the amino acids slows the reaction rate. Data is plotted as initial velocity (uM/sec) versus peptide concentration fit to the substrate inhibition equation (FIG. 18D).
The CAPN5-370-80 peptide was modified (FIGS. 19A-19G) and the activity was evaluated (FIGS. 20A-20D). Scanning modifications were made to the amino acids of the peptide to make the bonds un-cleavable by CAPN5. The location of the modifications are denoted with circles N-terminal (EDANS) and C-terminal GLU-(DABCYL) FRET tags were added to the peptides for the standard CAPN5 assay and were dissolved in 70% DMSO. Peptides incubated for 15 minutes at various concentrations with 5 μg of MBP-CAPN5 WT in a buffer containing 20 mM Tris, 300 mM NaCl, 2 mM DTT, pH 7.5 to measure activity (FIG. 20C). Data is plotted as initial velocity (uM/sec) versus peptide concentration. Modification of the amino acids slows the reaction rate.

CAPN5 WT [2] = molecular target: T1, CAPN5 WT; assay: Inhibition of CAPN5 WT proteolysis of CAPN5p.370-80 substrate; conditions: for effect of increasing substrate concentration on inhibition of CAPN5: increasing concentrations of CAPN5 p.370-80 substrate, with and without inhibitor
Description: (§4) FIG. 15A: Various concentrations of SNJ-1945 were incubated in a reaction with 50 μM EPLFAERK (SEQ ID NO: 22) (a CAPN1 substrate) and CAPN1 WT in activity. Data is plotted for CAPN1 as initial velocity (μM/sec) versus SNJ-1945 concentration. Addition of 1 μM SNJ-1945 slows the initial reaction rate by 100%. FIG. 15B: CAPN1 WT was incubated with and without SNJ-1945 at increasing concentrations of EPLFAERK substrate (SEQ ID NO: 22). Data is plotted for CAPN1 as initial velocity (μM/sec) versus substrate concentration. FIG. 15C: Various concentrations of SNJ-1945 were incubated in a reaction with CAPN5p.370-80 and CAPN5 WT in an activity buffer. Data is plotted for CAPN5 as initial velocity (μM/sec) versus SNJ-1945 concentration. Only after addition of 100 μM SNJ-1945 did the initial reaction rate slow to 100%. FIG. 15D: CAPN5 WT was incubated with and without SNJ-1945 at increasing concentrations of CAPN5 p.370-80 substrate. Data is plotted for CAPN5 as initial velocity (μM/sec) versus substrate concentration.
FIGS. 16A-16B. […] First generation lead compound CAPN5 p.370-80 was modified using amide cyclization to generate a second generation competitive cyclic inhibitor. (FIG. 16A) Various concentrations of Cyclic CAPN5 p.370-80 were incubated in a reaction with CAPN5p.370-80 and CAPN5 WT in an activity buffer. Data is plotted for CAPN5 as initial velocity (μM/sec) versus Cyclic CAPN5 p.370-80 concentration. Addition of 10 μM Cyclic CAPN5 p.370-80 slows the initial reaction rate by 40%. (FIG. 16B) CAPN5 WT was incubated with and without 10 μM Cyclic CAPN5 p.370-80 at increasing concentrations of CAPN5 p.370-80 substrate. Data is plotted for CAPN5 as initial velocity (μM/sec) versus substrate concentration.
Various concentrations of SNJ-1945 were incubated in a reaction with 50 μM EPLFAERK (a CAPN1 substrate) (SEQ ID NO: 22) and CAPN1 WT in activity. Addition of 1 μM SNJ-1945 slows the initial reaction rate by 100% (FIG. 15A). CAPN1 WT was incubated with and without SNJ-1945 at increasing concentrations of EPLFAERK substrate (SEQ ID NO: 22) (FIG. 15B). Various concentrations of SNJ-1945 were incubated in a reaction with CAPN5p.370-80 and CAPN5 WT in an activity buffer. Only after addition of 100 μM SNJ-1945 did the initial reaction rate slow to 100% (FIG. 15C). CAPN5 WT was incubated with and without SNJ-1945 at increasing concentrations of CAPN5 p.370-80 substrate (FIG. 15D).
First generation lead compound CAPN5 p.370-80 was modified using amide cyclization to generate a second generation competitive cyclic inhibitor. Various concentrations of Cyclic CAPN5 p.370-80 were incubated in a reaction with CAPN5p.370-80 and CAPN5 WT in an activity buffer. Addition of 10 μM Cyclic CAPN5 p.370-80 slows the initial reaction rate by 40% (FIG. 16A). CAPN5 WT was incubated with and without 10 μM Cyclic CAPN5 p.370-80 at increasing concentrations of CAPN5 p.370-80 substrate.

CAPN1 WT [3] = molecular target: T2, CAPN1 WT (Homo sapiens, UniProt P07384); assay: FRET peptide proteolysis assay with CAPN1; conditions: calpain activity buffer, 37° C.
T2 sequence (P07384 1-714): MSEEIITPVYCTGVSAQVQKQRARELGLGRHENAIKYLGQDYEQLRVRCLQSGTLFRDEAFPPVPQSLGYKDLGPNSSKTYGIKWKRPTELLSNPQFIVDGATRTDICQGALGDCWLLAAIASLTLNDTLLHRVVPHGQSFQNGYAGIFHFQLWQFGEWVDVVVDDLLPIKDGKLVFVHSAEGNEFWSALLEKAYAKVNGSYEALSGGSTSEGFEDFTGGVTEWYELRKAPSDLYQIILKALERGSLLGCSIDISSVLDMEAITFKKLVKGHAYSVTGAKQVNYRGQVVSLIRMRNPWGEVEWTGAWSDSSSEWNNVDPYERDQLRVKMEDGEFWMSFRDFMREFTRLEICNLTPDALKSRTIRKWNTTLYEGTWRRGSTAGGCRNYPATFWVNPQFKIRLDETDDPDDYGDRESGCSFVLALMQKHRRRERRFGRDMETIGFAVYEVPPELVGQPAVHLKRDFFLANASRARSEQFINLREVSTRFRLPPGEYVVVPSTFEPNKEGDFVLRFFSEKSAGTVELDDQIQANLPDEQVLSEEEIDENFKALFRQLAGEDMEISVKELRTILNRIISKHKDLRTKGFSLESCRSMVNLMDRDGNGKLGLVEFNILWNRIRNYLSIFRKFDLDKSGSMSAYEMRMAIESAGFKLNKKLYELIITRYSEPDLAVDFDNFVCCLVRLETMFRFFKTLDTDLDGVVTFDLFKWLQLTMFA
Description: as §3
CAPN5 specifically targets a peptide corresponding to its own autocatalytic site and not homologous regions in other calpains. […] Peptides corresponding to the homologous regions of the CAPN5 autoprotolysis site in other calpain family members were incubated with CAPN5 protease. […] Peptides tested in FIG. 14B were incubated with CAPN1. […] Kinetics data from the Michaelis-Menten and substrate inhibitions equations are shown in a table (FIG. 14D).

CAPN1 WT [4] = molecular target: T2, CAPN1 WT; assay: Inhibition of CAPN1 WT proteolysis of EPLFAERK substrate
Description: as §4
Various concentrations of SNJ-1945 were incubated in a reaction with 50 μM EPLFAERK (a CAPN1 substrate) (SEQ ID NO: 22) and CAPN1 WT in activity. Addition of 1 μM SNJ-1945 slows the initial reaction rate by 100% (FIG. 15A). CAPN1 WT was incubated with and without SNJ-1945 at increasing concentrations of EPLFAERK substrate (SEQ ID NO: 22) (FIG. 15B). […]

CAPN5-R243L, sequence (O15484 whole entry R243L): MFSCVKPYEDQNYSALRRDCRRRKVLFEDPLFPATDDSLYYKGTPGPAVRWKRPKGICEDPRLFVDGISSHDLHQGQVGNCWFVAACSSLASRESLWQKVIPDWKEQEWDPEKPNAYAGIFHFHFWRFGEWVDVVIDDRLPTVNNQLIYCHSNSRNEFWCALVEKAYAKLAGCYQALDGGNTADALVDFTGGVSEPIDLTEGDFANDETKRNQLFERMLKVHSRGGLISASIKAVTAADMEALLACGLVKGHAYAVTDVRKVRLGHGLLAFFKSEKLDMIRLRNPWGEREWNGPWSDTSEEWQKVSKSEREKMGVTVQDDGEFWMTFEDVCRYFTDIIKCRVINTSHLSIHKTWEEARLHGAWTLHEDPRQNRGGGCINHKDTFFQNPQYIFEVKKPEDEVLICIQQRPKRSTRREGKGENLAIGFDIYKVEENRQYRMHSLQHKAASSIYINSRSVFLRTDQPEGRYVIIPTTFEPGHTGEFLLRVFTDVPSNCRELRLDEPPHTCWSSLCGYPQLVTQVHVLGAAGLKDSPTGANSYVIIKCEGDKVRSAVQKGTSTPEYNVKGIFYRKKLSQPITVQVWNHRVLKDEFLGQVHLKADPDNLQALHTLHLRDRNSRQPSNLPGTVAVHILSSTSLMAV
T1 sequence (O15484 whole entry): as the sequence (O15484 whole entry R243L) above, with L243R counted along it

proteolysis of peptide substrate by CAPN5-R243L (fluorescence) (CAPN5-R243L): greatest fluorescent intensity
proteolysis of peptide substrate by CAPN5-WT (fluorescence) (CAPN5 WT [1]): cleaved slower
Compound: RQNRGGGCINHKDTFFQNPQY (listed as Homo sapiens) [CAPN5-370-390]
substrate inhibition of CAPN5 cleavage (CAPN5 WT [1]; peptide length series near autoproteolytic site): does not show cleavage substrate inhibition

slowing of initial reaction rate of CAPN5 (CAPN5 WT [2]; 10 μM Cyclic CAPN5 p.370-80, CAPN5p.370-80 substrate): 40%
effect of increasing substrate concentration on inhibition of CAPN5 (CAPN5 WT [2]): does not overcome inhibition
Compound: Cyclic CAPN5 p.370-80: CAPN5 p.370-80 modified by amide cyclization, second generation competitive cyclic inhibitor

proteolysis of peptide substrate by CAPN5-R243L (fluorescence) (CAPN5-R243L): most sensitive to cleavage
proteolysis of peptide substrate by CAPN5-R243L (fluorescence) (CAPN5-R243L; listed as CAPN5 (370-380)): greatest fluorescent intensity
proteolysis of peptide substrate by CAPN1 (fluorescence) (CAPN1 WT [3]; listed as CAPN5 (370-380)): not proteolyzed by CAPN1
proteolysis of peptide substrate by CAPN1 (fluorescence) (CAPN1 WT [3]; listed as CAPN5p370-380): very limited proteolysis
proteolysis of peptide substrate by CAPN5-WT (fluorescence) (CAPN5 WT [1]): most sensitive to cleavage
proteolysis of peptide substrate by CAPN5-WT (fluorescence) (CAPN5 WT [1]; listed as 11 aa peptide): rapid and high cleavage
proteolysis of peptide substrate by CAPN5-WT (fluorescence) (CAPN5 WT [1]; listed as CAPN5 (370-380)): specific to CAPN5
proteolysis of peptide substrate by CAPN5-WT (fluorescence) (CAPN5 WT [1]; listed as CAPN5 (p370-380)): greatest fluorescent intensity
proteolysis of peptide substrate by CAPN5-WT (fluorescence) (CAPN5 WT [1]; listed as CAPN5p370-380): high proteolysis
Compound: RQNRGGGCINH (listed as Homo sapiens) [CAPN5-370-380]

Compound: COCCOCCOC(=O)N[C@@H](CC(C)C)C(=O)N[C@@H](Cc1ccccc1)C(=O)C(=O)NC1CC1 [SNJ-1945]
inhibition of CAPN1 (in words) (CAPN1 WT [4]): inhibits CAPN1
slowing of initial reaction rate of CAPN1 (CAPN1 WT [4]; 1 μM SNJ-1945, 50 μM EPLFAERK substrate): 100%
inhibition of CAPN5 (in words) (CAPN5 WT [2]): not a good inhibitor of CAPN5
slowing of initial reaction rate of CAPN5 (CAPN5 WT [2]; 100 μM SNJ-1945, CAPN5p.370-80 substrate): 100%
effect of increasing substrate concentration on inhibition of CAPN5 (CAPN5 WT [2]): overcomes the inhibition

proteolysis of peptide substrate by CAPN5-WT (fluorescence) (CAPN5 WT [1]): some proteolysis
Compound: CAPN14 peptide: peptide of the CAPN14 region homologous to the CAPN5 autoproteolysis site (RGFNSGGSQPNAETFWTNPQFR; listed as Homo sapiens)

Compound: EPLFAERK [reference compound]
proteolysis of peptide substrate by CAPN1 (fluorescence) (CAPN1 WT [3]): specific to CAPN1; also recorded: high proteolysis
proteolysis of peptide substrate by CAPN5-WT (fluorescence) (CAPN5 WT [1]): not proteolyzed by CAPN5; also recorded: very limited proteolysis

proteolysis of peptide substrate by CAPN5-WT (fluorescence) (CAPN5 WT [1]): mild cleavage
Compound: CAPN5p.372-378: 7 amino acid peptide substrate near the CAPN5 autoproteolytic site (NRGGGCI)

proteolysis of peptide substrate by CAPN5-R243L (fluorescence) (CAPN5-R243L): greatest fluorescent intensity
Compound: KIEIVRKKPIFKKATV [PDGFB (155-170)]
